The target of assay [1] is T1, PHD_(Pygo2)–HD1_(BCL9) complex (human, UniProt Q9BRQ0 327-387; O00512 177-205).
T1 chain: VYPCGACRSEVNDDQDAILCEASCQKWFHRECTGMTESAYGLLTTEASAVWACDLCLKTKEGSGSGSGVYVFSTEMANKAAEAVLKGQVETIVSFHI
Briefly: ITC. On the technique in general: Isothermal titration calorimetry measures the heat released or taken up as one component is titrated into another.

The target of assay [2] is T2, PHD_(Pygo1)–HD1_(BCL9) complex (6×His-tagged, PHD linked to HD1) (human, UniProt Q9Y3Y4 340-400; O00512 177-205).
T2 chain: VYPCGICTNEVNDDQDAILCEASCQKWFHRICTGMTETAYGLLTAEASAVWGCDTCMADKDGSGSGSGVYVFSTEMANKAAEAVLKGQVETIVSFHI
Nature of the assay: ITC.

Where no end group is shown, it is not given here. Me2 = dimethyl

B1: 15-mer H3K4me2 histone tail peptide (histone H3 tail dimethylated at lysine 4) (peptide)
chain: ARTK(Me2)QTARKSTGGKA
The term Kd denotes the equilibrium constant for the complex coming apart. Regarding B1, the Kd turned out to be 2020 nM in assay [1] and 3320 nM in assay [2].
